Data set [1] deals with the molecule itself. The data set is described as follows: immunoblot after SDS-PAGE.
Data set [2] deals with the molecule itself. Nature of the data set: immunoblot after SDS-PAGE. This is another data set of the same source.

Read-outs that look alike come from different tables or passages of the source.

The term stoichiometry N denotes a count of units in the complex or per binding partner.

B1: recombinant Cas2 of Leptospira interrogans (LinCas2) (enzyme, UniProt Q8F1F4 1-94, looked up)
chain: MKHWRLVSYDIREPKRLRRVAKIMEGFGERIQYSVFRIYSTDKELEKLRWKLAKVTEEEDNIFYLTLCTKCASGAHTQEKKSAWPEAPKTLKIL
As to B1, the “stoichiometry N” value in data set [1] amounted to 2.

B2: native LinCas2 in the lysate of L. interrogans serovar Copenhageni (natural protein, UniProt Q8F1F4 1-94, looked up)
chain: MKHWRLVSYDIREPKRLRRVAKIMEGFGERIQYSVFRIYSTDKELEKLRWKLAKVTEEEDNIFYLTLCTKCASGAHTQEKKSAWPEAPKTLKIL
Turning to B2, in data set [2], the “stoichiometry N” value is 2.

Values taken from paper PMC8610301 (Current Research in Microbial Sciences, 2021).
